In patent US20140142103, “Methods and Compositions for Modulating Rad51 and Homologous Recombination” (The University of Chicago, published 2014):

Target: RecA (UniProt P0A7G6 P0A7G6:2-353)
Assay: FP; positive control; 10 mM Mg acetate, 2 mM ATP, 37 C
Details: tags: New England Biolabs; label: 5' fluorescein
Protocol: FIG. 2A, bottom: Purified RAD51 protein (wild type or mutant F86E) were serially diluted. RecA (New England Biolabs) was used as a positive control. Proteins were added to a 5′terminal fluorescein conjugated oligonucleotide (45 bases of dT) at a 1 μM nucleotide concentration. The mixture was incubated at 37° C. for 30 minutes in 384-well plates containing a reaction buffer (30 mM Tris/acetate pH 7.5, 10 mM Mg²⁺/acetate, 2 mM ATP, 0.1 mM DTT, 0.5 μM BSA). Fluorescence polarization was measured with a plate reader (filters: excitation=485 nm, emission=510 nm). FIG. 2B, top: Varying concentrations of 5′terminal fluorescein conjugated oligonucleotide were used to determine the threshold RAD51 concentration.
RAD51 filament formation can also be studied using oligonucleotides that are end-labeled with a fluorescent tag. Binding of proteins to this substrate DNA can be detected as an increase in anisotropy (or polarization) of the fluorescent tag. This method has been used to monitor the DNA-binding activity of yeast RAD51 (Kim et al., 2001) and RecA (Wittung et al., 1997; Ellouze et al., 1999), which is the […] homolog of RAD51. In this example, this method was modified so that very small sample volumes (30 μl) can be monitored in a high-throughput scale, using 384-well plates and a fluorescent plate reader. […]

Chain of RecA (P0A7G6 2-353, one chain of several): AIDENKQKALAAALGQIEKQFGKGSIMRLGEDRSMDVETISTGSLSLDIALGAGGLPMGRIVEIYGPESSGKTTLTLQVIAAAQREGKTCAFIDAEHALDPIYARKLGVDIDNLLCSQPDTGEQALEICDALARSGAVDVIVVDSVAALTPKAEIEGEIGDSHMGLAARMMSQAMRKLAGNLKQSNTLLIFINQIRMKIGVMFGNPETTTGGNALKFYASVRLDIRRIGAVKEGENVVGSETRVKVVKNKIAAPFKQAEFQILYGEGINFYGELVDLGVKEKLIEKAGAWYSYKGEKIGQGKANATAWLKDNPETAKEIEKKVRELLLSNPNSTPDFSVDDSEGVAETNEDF

Does TTTTTTTTTTTTTTTTTTTTTTTTTTTTTTTTTTTTTTTTTTTTT (ssDNA) [oligo dT45] bind?
Result: binds
